# B1: GPpep1 (peptide)
# peptide: KGKRGDSGSPATWTTRGFVFT
# notes: also called 21-residue peptide representing residues 3-23 of the human GP antigen
# B2: FLAG-tagged recombinant GPBP (rGPBP) (protein)
# chain: DYKDDDDKMSDNQSWNSSGSEEDPETESGPPVERCGVLSKWTNYIHGWQDRWVVLKNNALSYYKSEDETEYGCRGSICLSKAVITPHDFDECRFDISVNDSVWYLRAQDPDHRQQWIDAIEQHKTESGYGSESSLRRHGSMVSLVSGASGYSATSTSSFKKGHSLREKLAEMETFRDILCRQVDTLQKYFDACADAVSKDELQRDKVVEDDEDDFPTTRSDGDFLHSTNGNKEKLFPHVTPKGINGIDFKGEAITFKATTAGILATLSHCIELMVKREDSWQKRLDKETEKKRRTEEAYKNAMTELKKKSHFGGPDYEEGPNSLINEEEFFDAVEAALDRQDKIEEQSQSEKVRLHWPTSLPSGDAFSSVGTHRFVQKPYSRSSSMSSIDLVSASDDVHRFSSQVEEMVQNHMTYSLQDVGGDANWQLVVEEGEMKVYRREVEENGIVLDPLKATHAVKGVTGHEVCNYFWNVDVRNDWETTIENFHVVETLADNAIIIYQTHKRVWPASQRDVLYLSVIRKIPALTENDPETWIVCNFSVDHDSAPLNNRCVRAKINVAMICQTLVSPPEGNQEISRDNILCKITYVANVNPGGWAPASVLRAVAKREYPKFLKRFTSYVQEKTAGKPILF
# Columns and labels:
# [1] = target: T1, HeLa1 beta-galactosidase-derived fusion protein containing the N-terminal 150 residues of GPBP (human, UniProt Q5R6M6 1-150 (Pongo abelii entry)); test: lambda-gt11 expression library filters overlaid with GPpep1, detected with monoclonal antibody
# T1 construct: Expressed from the lambda-gt11 clone on library filters and as a lysogen in E. coli Y1089; also called HeLa1 lambda-gt11 fusion protein; not shown: beta-galactosidase part encoded by the lambda-gt11 vector
# T1 sequence: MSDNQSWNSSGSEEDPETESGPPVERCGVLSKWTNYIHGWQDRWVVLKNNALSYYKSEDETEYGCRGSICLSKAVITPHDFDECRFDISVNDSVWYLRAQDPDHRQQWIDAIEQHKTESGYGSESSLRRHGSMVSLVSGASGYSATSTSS
# Description: Isolation and characterization of cDNA clones encoding human GPBP—Several human λ-gt11 cDNA expression libraries (eye, fetal and adult lung, kidney and HeLa S3, from CLONTECH) were probed for cDNAs encoding proteins interacting with GPpep1. Nitrocellulose filters (Millipore) prepared following standard immunoscreening procedures were blocked and incubated with 1-10 nmoles per ml of GPpep1 at 37° C. Specifically bound GPpep1 was detected using M3/1A monoclonal antibodies (7). A single clone was identified in the HeLa-derived library (HeLa1). Specificity of fusion protein binding was confirmed by similar binding to recombinant eukaryotic human GP antigen. The EcoRI cDNA insert of HeLa1 (0.5-kb) was used to further screen the same library and to isolate overlapping cDNAs. The largest cDNA (2.4-kb) containing the entire cDNA of HeLa1 (n4′) was fully sequenced.
# [2] = target: T2, rMBPΔII Ser to Ala mutant in position 8
# T2 chain: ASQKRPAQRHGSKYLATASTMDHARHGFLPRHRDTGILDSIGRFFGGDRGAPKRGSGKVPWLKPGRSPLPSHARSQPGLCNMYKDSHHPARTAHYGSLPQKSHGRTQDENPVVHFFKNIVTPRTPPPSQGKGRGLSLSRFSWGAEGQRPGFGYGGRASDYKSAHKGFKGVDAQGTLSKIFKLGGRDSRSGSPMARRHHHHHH
# [3] = target: T3, Human recombinant GP antigen (rGP) produced in 293 cells, Q01955
# T3 chain: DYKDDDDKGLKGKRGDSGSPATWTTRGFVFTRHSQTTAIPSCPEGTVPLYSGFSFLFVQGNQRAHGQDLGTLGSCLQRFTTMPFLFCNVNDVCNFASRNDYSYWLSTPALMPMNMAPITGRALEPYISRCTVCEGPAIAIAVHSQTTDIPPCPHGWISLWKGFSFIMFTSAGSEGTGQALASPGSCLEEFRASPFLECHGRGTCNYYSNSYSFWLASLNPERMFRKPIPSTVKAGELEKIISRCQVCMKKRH
# GPpep1 = target: T4, GPpep1
# T4 chain: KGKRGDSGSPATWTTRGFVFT
# [4] = target: T5, rMBP Ser to Ala mutant in position 8, P02686
# T5 chain: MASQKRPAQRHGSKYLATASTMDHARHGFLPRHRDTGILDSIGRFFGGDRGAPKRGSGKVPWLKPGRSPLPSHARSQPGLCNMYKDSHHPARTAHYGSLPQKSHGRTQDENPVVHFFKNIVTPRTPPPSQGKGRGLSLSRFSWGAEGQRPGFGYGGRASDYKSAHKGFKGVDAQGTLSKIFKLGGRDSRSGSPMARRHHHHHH
# [5] = target: T6, rMBPΔII Ser to Ala mutant in position 57
# T6 chain: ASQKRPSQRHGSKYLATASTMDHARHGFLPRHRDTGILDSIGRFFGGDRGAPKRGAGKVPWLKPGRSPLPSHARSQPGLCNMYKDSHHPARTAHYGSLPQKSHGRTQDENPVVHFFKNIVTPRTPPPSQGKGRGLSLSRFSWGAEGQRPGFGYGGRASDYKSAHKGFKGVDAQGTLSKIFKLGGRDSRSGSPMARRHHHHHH
# [6] = target: T7, recombinant 21 kDa myelin basic protein (rMBP), P02686
# T7 chain: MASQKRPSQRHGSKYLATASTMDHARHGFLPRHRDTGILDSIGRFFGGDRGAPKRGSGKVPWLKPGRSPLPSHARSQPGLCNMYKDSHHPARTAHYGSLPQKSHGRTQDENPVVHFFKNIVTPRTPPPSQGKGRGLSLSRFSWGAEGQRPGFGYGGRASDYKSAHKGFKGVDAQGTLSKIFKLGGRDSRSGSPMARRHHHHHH
# GPΔIII derived peptide = target: T8, GPΔIII derived peptide
# T8 chain: QRAHGQDLDALFVKVLRSP
# [7] = target: T9, recombinant 18.5 kDa myelin basic protein lacking exon II (rMBPΔII)
# T9 chain: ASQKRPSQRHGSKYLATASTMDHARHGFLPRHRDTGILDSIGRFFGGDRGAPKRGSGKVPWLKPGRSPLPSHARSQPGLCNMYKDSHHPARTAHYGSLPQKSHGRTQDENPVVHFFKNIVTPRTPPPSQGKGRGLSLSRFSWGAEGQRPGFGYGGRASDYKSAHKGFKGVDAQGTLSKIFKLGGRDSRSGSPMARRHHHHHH
# GPpep1 Ala9 = target: T10, GPpep1 Ala9
# T10 chain: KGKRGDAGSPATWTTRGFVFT
# [8] = target: T11, rMBP Ser to Ala mutant in position 57, P02686
# T11 chain: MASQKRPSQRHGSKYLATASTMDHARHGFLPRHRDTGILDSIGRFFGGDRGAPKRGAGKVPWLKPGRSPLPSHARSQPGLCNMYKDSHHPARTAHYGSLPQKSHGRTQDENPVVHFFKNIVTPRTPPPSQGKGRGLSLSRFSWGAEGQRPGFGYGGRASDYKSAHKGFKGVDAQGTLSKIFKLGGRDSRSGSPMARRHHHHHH
# [9] = target: T12, native human GP antigen (alpha3(IV)NC1 domain), Q01955
# T12 chain: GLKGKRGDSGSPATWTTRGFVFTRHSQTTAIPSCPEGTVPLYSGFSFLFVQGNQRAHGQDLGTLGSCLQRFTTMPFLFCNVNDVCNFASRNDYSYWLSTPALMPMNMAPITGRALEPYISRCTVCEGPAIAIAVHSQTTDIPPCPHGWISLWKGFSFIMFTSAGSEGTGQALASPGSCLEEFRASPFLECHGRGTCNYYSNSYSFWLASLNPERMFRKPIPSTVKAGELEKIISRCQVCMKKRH
Binder,binding result [1],"^32P incorporation, in situ phosphorylation of blotted substrate [2]","^32P incorporation, in vitro phosphorylation [3]","^32P incorporation, in vitro phosphorylation (GPpep1)","^32P incorporation, in situ phosphorylation of blotted substrate [4]","^32P incorporation, in situ phosphorylation of blotted substrate [5]","^32P incorporation, in situ phosphorylation of blotted substrate [6]","GPBP autophosphorylation, 5 nmol peptide, Boc chemistry (GPΔIII derived peptide)","GPBP autophosphorylation, 5 nmol peptide, Fmoc chemistry (GPΔIII derived peptide)","^32P incorporation, in vitro phosphorylation (native bovine GP antigen)","^32P incorporation, in situ phosphorylation of blotted substrate [7]","^32P incorporation, in vitro phosphorylation (GPpep1 Ala9)","^32P incorporation, in situ phosphorylation of blotted substrate [8]","^32P incorporation, in vitro phosphorylation [9]"
B1,binds,–,–,–,–,–,–,–,–,–,–,–,–,–
B2,–,recombinant Ser to Ala mutants displayed no significant reduction in ^32P incorporation,Affinity-purified rGPBP phosphorylates all human-derived material to a different extent,Affinity-purified rGPBP phosphorylates all human-derived material to a different extent,recombinant Ser to Ala mutants displayed no significant reduction in ^32P incorporation,recombinant Ser to Ala mutants displayed no significant reduction in ^32P incorporation,GPBP preferentially phosphorylated MBP,Boc-based synthetic peptides positively influenced GPBP autophosphorylation,Fmoc-based inhibited GPBP autophosphorylation,no appreciable ^32P-incorporation was observed in the bovine-derived substrate,little phosphorylation of MBPΔII was observed,The lower ^32P incorporation displayed by GPpep1 Ala^9 when compared with GPpep1,recombinant Ser to Ala mutants displayed no significant reduction in ^32P incorporation,Affinity-purified rGPBP phosphorylates all human-derived material to a different extent

# From patent publication US20030054488A1 (published 2003)
